{"source": "paper PMC4574524", "about": "(Journal of immunology (Baltimore, Md. : 1950), 2015)", "target": "PFD1235w DBLβ3_D4, wild type (P. falciparum 3D7)", "test": "SPR"}
{"binder": "ICAM-1_D1 (domain or fragment) QTSVSPSKVILPRGGSVLVTCSTSCDQPKLLGIETPLPKKELLLPGNNRKVYELSNVQEDSQPMCYSNCPDGQSTAKTFLTVYWT", "values": [{"measurement": "Kd", "result": 2.34, "unit": "nM"}, {"measurement": "koff", "result": 0.00337, "unit": "s⁻¹"}]}
